{"source": "patent US20100143379A1", "about": "(priority 2005, published 2010)", "molecules": {"B1": {"name": "MIF: macrophage migration inhibitory factor; recombinant mouse or human MIF purified essentially free of endotoxin (protein)", "chain": "PMFIVNTNVPRASVPDGFLSELTQQLAQATGKPPQYIAVHVVPDQLMAFGGSSEPCALCSLHSIGKIGGAQNRSYSKLLCGLLAERLRISPDRVYINYYDMNAANVGWNNSTFA"}}, "system": "p53", "assay": "Cytoplasmic Ser15-phosphorylated p53 content, COS-7 cells", "format": "cell-based", "settings": "during apoptosis induction", "description": "Apoptosis Studies. […] Cell lysates were collected, and caspase-3 activity analyzed using a colorimetric assay kit (R&D Systems). Cytoplasmic p53 content was analyzed as described previously (Mitchell et al. (2002). Proc Natl Acad Sci USA 99:345-350) by immunoblotting of mouse cytosolic fractions using a pair of anti-phospho-p53 (Ser15) (R&D Systems) and total anti-p53 antibodies (Cell Signaling); and for COS-7 cells, the anti-p53 (Ser15) and total anti-p53 antibodies (Cell Signaling). In vivo apoptosis studies followed the procedures of (Mitchell et al. (2002). Proc Natl Acad Sci USA 99:345-350), and were conducted after i.p injection of 15 mg/kg lipopolysaccharide (E. coli 0111:B4; Sigma). Mice were sacrificed 24 hrs after priming and the peritoneal macrophage cells collected and immediately analyzed for apoptosis by an ELISA that detects cytoplasmic oligonucleosomes (Roche Diagnostics). Primary macrophages also were immunostained by Alexa 488-conjugated, Annexin V (Invitrogen), and apoptotic cells enumerated by fluorescence microscopy."}
{"molecule": "B1", "values": [{"measurement": "intracytoplasmic content of Ser15-phosphorylated p53", "value": "reduction in the intracytoplasmic content"}]}
